What all share (assay): SPR
For orientation: SPR reads the build-up and loss of mass on a sensor chip optically.

For test [1], the target named is T1, recombinant tissue factor containing transmembrane spanning domain (TF 1-248), relipidated.
T1 chain: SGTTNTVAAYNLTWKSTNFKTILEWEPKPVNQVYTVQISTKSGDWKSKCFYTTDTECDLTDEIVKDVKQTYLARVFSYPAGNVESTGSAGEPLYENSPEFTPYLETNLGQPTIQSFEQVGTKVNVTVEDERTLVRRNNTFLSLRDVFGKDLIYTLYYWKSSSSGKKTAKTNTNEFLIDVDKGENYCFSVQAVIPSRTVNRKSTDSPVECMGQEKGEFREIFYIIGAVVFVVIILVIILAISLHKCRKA

For test [2], the target named is soluble tissue factor (TF 1-219) (UniProt P13726 33-251).
Test [3] has as its target T1, recombinant tissue factor containing ….

Experimental findings from publication PMC2864353 (Blood coagulation & fibrinolysis : an international journal …, 2010) are described below.

Where two headings read alike, the source gives them in different places.

B1: Factor VIIa (enzyme)
chain 1: ANAFLEELRPGSLERECKEEQCSFEEAREIFKDAERTKLFWISYSDGDQCASSPCQNGGSCKDQLQSYICFCLPAFEGRNCETHKDDQLICVNENGGCEQYCSDHTGTKRSCRCHEGYSLLADGVSCTPTVEYPCGKIPILEKRNASKPQGR
chain 2: IVGGKVCPKGECPWQVLLLVNGAQLCGGTLINTIWVVSAAHCFDKIKNWRNLIAVLGEHDLSEHDGDEQSRRVAQVIIPSTYVPGTTNHDIALLRLHQPVVLTDHVVPLCLPERTFSERTLAFVRFSLVSGWGQLLDRGATALELMVLNVPRLMTQDCLQQSRKVGDSPNITEYMFCAGYSDGSKDSCKGDSGGPHATHYRGTWYLTGIVSWGQGCATVGHFGVYTRVSQYIEWLQKLMRSEPRPGVLLRAPFP
What is called Kd is the concentration at which binding is half-saturated. In general, koff refers to the rate constant with which the complex falls apart. By kon is commonly meant a measure of how fast the partners come together. On to B1, for which the Kd in test [1] came to 0.0457 nM; in test [2], 11.6 nM; in test [3], 0.0474 nM. Also, the results for the koff in test [1], in test [2] and in test [3] were 0.000234 s⁻¹, 0.00592 s⁻¹ and 0.000233 s⁻¹, respectively. Moreover, the on-rate constant (kon) in test [1] was found to be 2.73e+06 M⁻¹ s⁻¹; in test [2], 475000 M⁻¹ s⁻¹; in test [3], 2.58e+06 M⁻¹ s⁻¹.
